One may read the Km as the substrate concentration at which the rate is half of its maximum.

Consider one protein from paper PMC8403083.

Substrate in data set [1]: Nc1ncnc2c1ncn2[C@@H]1O[C@H](COP(=O)(O)O)[C@@H](O)[C@H]1O
Description: enzyme kinetics. Type of data set: biochemical, Homo sapiens.

Substrate in data set [2]: Nc1ccn([C@@H]2O[C@H](COP(=O)(O)O)[C@@H](O)[C@H]2O)c(=O)n1
Description: enzyme kinetics. Format: biochemical, Homo sapiens.

B1: CD73 (5ʹ-Nucleotidase) (Homo sapiens) (protein)
chain: WELTILHTNDVHSRLEQTSEDSSKCVNASRCMGGVARLFTKVQQIRRAEPNVLLLDAGDQYQGTIWFTVYKGAEVAHFMNALRYDAMALGNHEFDNGVEGLIEPLLKEAKFPILSANIKAKGPLASQISGLYLPYKVLPVGDEVVGIVGYTSKETPFLSNPGTNLVFEDEITALQPEVDKLKTLNVNKIIALGHSGFEMDKLIAQKVRGVDVVVGGHSNTFLYTGNPPSKEVPAGKYPFIVTSDDGRKVPVVQAYAFGKYLGYLKIEFDERGNVISSHGNPILLNSSIPEDPSIKADINKWRIKLDNYSTQELGKTIVYLDGSSQSCRFRECNMGNLICDAMINNNLRHTDEMFWNHVSMCILNGGGIRSPIDERNNGTITWENLAAVLPFGGTFDLVQLKGSTLKKAFEHSVHRYGQSTGEFLQVGGIHVVYDLSRKPGDRVVKLDVLCTKCRVPSYDPLKMDEVYKVILPNFLANGGDGFQMIKDELLRHDSGDQDINVVSTYISKMKVIYPAVEGRIK
In the case of B1, the results for the Km in data set [1] and in data set [2] were 2.7 µM and 45 µM, respectively.
